Assay [1] addresses T1, fibrinogen-like globe (FBG) domain of human tenascin-C (human, UniProt P24821 1975-2201).
T1 chain: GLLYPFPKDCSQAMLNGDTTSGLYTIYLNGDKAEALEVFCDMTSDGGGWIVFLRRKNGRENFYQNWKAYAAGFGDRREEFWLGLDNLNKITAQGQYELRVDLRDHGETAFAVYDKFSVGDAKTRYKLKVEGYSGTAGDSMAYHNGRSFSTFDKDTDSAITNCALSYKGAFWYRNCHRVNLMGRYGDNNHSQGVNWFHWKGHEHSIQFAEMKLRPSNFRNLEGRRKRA
Description: SPR; 37°C.

Assay [2] concerns the target T2, FBG domain of rat tenascin-C (rat).
T2 chain: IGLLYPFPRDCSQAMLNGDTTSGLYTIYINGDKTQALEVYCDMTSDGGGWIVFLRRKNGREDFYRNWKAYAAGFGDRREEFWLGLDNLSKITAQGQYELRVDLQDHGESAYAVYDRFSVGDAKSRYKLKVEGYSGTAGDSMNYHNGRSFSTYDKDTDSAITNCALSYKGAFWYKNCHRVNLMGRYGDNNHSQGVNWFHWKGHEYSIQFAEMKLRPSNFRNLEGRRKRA
Description: SPR; 37°C.

B1: monoclonal antibody C3 (antibody, V domains shown)
VH: QVQLVESGGGLVQPGRSLRLSCAASGFTFDDYAMHWVRQAPGKGLEWVSGISGSGGSTYYADSVKGRFTISRDNAKNSLYLQMNSLRAEDTALYYCAKSYQSDEDAFDIWGQGTMVTVSS
VL: DIQMTQSPASLPTPVGDRVTITCRASQYIQGFLNWYQQKPGKAPKLLIYDASNLETGVPSRFSGSGSGTDFTLTISSLQPEDFATYYCQQSYSTPQTFGQGTKVDIK
For the molecule B1, the koff in assay [1] is 0.00083 s⁻¹; in assay [2] it was 0.00473 s⁻¹.

These data come from paper PMC6352652 (2018).
